Results reported in the supplement of paper PMC9112550, “Optimization of the antimicrobial peptide Bac7 by deep mutational scanning” (BMC Biology, 2022).

Test system: Escherichia coli TOP10
Assay: shrunken log2 fold change of peptide-encoding DNA abundance (4.5 h post-induction vs induction); higher = less antimicrobial activity (less host growth inhibition)
Details: time post-induction: 4.5 h; library: site-saturation at positions 5, 18, 19, 20
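Note: peptides expressed intracellularly from a pBAD plasmid library in pooled LB shake-flask culture, induced with 0.3% L-arabinose, DNA abundance read by NGS, three biological replicates, DESeq2 with apeglm shrinkage.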

Sequence	shrunken log2 fold change
RRIRQRPPRLPRPRPRPKPEPRP	-0.0759
RRIRQRPPRLPRPRPRPKPGPRP	0.285
RRIRQRPPRLPRPRPRPKPSPRP	0.159
RRIRQRPPRLPRPRPRPKPVPRP	0.407
RRIRQRPPRLPRPRPRPKPYPRP	-0.074
RRIRQRPPRLPRPRPRPKQEPRP	-0.0419
RRIRQRPPRLPRPRPRPKQKPRP	-0.0585
RRIRQRPPRLPRPRPRPKRSPRP	0.0578
RRIRQRPPRLPRPRPRPKSGPRP	0.631
RRIRQRPPRLPRPRPRPKTKPRP	-0.254
RRIRQRPPRLPRPRPRPKTSPRP	-0.15
RRIRQRPPRLPRPRPRPKVAPRP	-0.00277
RRIRQRPPRLPRPRPRPKVNPRP	-0.0444
RRIRQRPPRLPRPRPRPKWCPRP	-0.0936
RRIRQRPPRLPRPRPRPKWNPRP	-0.216
RRIRQRPPRLPRPRPRPLAFPRP	-0.232
RRIRQRPPRLPRPRPRPLCKPRP	-0.406
RRIRQRPPRLPRPRPRPLCPPRP	-0.334
RRIRQRPPRLPRPRPRPLCWPRP	-0.0481
RRIRQRPPRLPRPRPRPLDPPRP	-0.408
RRIRQRPPRLPRPRPRPLETPRP	0.181
RRIRQRPPRLPRPRPRPLGCPRP	-0.0282
RRIRQRPPRLPRPRPRPLGHPRP	0.0124
RRIRQRPPRLPRPRPRPLGWPRP	0.8
RRIRQRPPRLPRPRPRPLISPRP	-0.173

Sequence	shrunken log2 fold change
RRIRQRPPRLPRPRPRPLKFPRP	-0.27
RRIRQRPPRLPRPRPRPLLFPRP	-0.0219
RRIRQRPPRLPRPRPRPLLPPRP	0.0127
RRIRQRPPRLPRPRPRPLLSPRP	0.00947
RRIRQRPPRLPRPRPRPLMSPRP	-0.0453
RRIRQRPPRLPRPRPRPLNRPRP	-0.191
RRIRQRPPRLPRPRPRPLNTPRP	-0.937
RRIRQRPPRLPRPRPRPLNYPRP	-0.548
RRIRQRPPRLPRPRPRPLQFPRP	-0.168
RRIRQRPPRLPRPRPRPLQVPRP	-0.0738
RRIRQRPPRLPRPRPRPLSEPRP	0.0232
RRIRQRPPRLPRPRPRPLSQPRP	-0.0534
RRIRQRPPRLPRPRPRPLSRPRP	-0.0591
RRIRQRPPRLPRPRPRPLSYPRP	0.121
RRIRQRPPRLPRPRPRPLWHPRP	-0.107
RRIRQRPPRLPRPRPRPLYFPRP	-0.623
RRIRQRPPRLPRPRPRPLYPPRP	-0.228
RRIRQRPPRLPRPRPRPLYRPRP	0.0401
RRIRQRPPRLPRPRPRPMAHPRP	0.00446
RRIRQRPPRLPRPRPRPMCYPRP	-0.01
RRIRQRPPRLPRPRPRPMDGPRP	-0.199
RRIRQRPPRLPRPRPRPMDWPRP	0.0912
RRIRQRPPRLPRPRPRPMESPRP	-0.0548
RRIRQRPPRLPRPRPRPMFFPRP	-0.0364
RRIRQRPPRLPRPRPRPMFGPRP	0.0107

Sequence	shrunken log2 fold change
RRIRQRPPRLPRPRPRPMFMPRP	-0.0688
RRIRQRPPRLPRPRPRPMFNPRP	-0.436
RRIRQRPPRLPRPRPRPMHPPRP	0.203
RRIRQRPPRLPRPRPRPMHTPRP	-0.026
RRIRQRPPRLPRPRPRPMHYPRP	-0.276
RRIRQRPPRLPRPRPRPMKTPRP	0.0802
RRIRQRPPRLPRPRPRPMLVPRP	0.142
RRIRQRPPRLPRPRPRPMMDPRP	-0.137
RRIRQRPPRLPRPRPRPMMQPRP	-0.313
RRIRQRPPRLPRPRPRPMMTPRP	0.0172
RRIRQRPPRLPRPRPRPMQYPRP	-0.309
RRIRQRPPRLPRPRPRPMRAPRP	0.235
RRIRQRPPRLPRPRPRPMSPPRP	-0.11
RRIRQRPPRLPRPRPRPMVNPRP	-0.2
RRIRQRPPRLPRPRPRPMYGPRP	-0.0233
RRIRQRPPRLPRPRPRPNCWPRP	0.0822
RRIRQRPPRLPRPRPRPNDIPRP	-0.348
RRIRQRPPRLPRPRPRPNEAPRP	-0.0868
RRIRQRPPRLPRPRPRPNETPRP	-0.0269
RRIRQRPPRLPRPRPRPNGAPRP	0.451
RRIRQRPPRLPRPRPRPNINPRP	-0.633
RRIRQRPPRLPRPRPRPNLTPRP	-0.432
RRIRQRPPRLPRPRPRPNNHPRP	-0.71
RRIRQRPPRLPRPRPRPNPMPRP	-0.00515
RRIRQRPPRLPRPRPRPNQCPRP	0.0304

Sequence	shrunken log2 fold change
RRIRQRPPRLPRPRPRPNQIPRP	-0.371
RRIRQRPPRLPRPRPRPNTAPRP	-0.0235
RRIRQRPPRLPRPRPRPNVCPRP	-0.575
RRIRQRPPRLPRPRPRPNVEPRP	-0.0222
RRIRQRPPRLPRPRPRPNYKPRP	-0.545
RRIRQRPPRLPRPRPRPPCPPRP	0.085
RRIRQRPPRLPRPRPRPPEAPRP	0.243
RRIRQRPPRLPRPRPRPPEFPRP	0.0335
RRIRQRPPRLPRPRPRPPEHPRP	0.0412
RRIRQRPPRLPRPRPRPPEWPRP	-0.0462
RRIRQRPPRLPRPRPRPPFQPRP	0.0422
RRIRQRPPRLPRPRPRPPFVPRP	0.0462
RRIRQRPPRLPRPRPRPPGNPRP	0.246
RRIRQRPPRLPRPRPRPPHFPRP	0.00908
RRIRQRPPRLPRPRPRPPHVPRP	0.15
RRIRQRPPRLPRPRPRPPINPRP	-0.00134
RRIRQRPPRLPRPRPRPPIVPRP	-0.015
RRIRQRPPRLPRPRPRPPLDPRP	0.685
RRIRQRPPRLPRPRPRPPMDPRP	-0.0321
RRIRQRPPRLPRPRPRPPPHPRP	0.737
RRIRQRPPRLPRPRPRPPQIPRP	0.238
RRIRQRPPRLPRPRPRPPRCPRP	0.689
RRIRQRPPRLPRPRPRPPRRPRP	0.852
RRIRQRPPRLPRPRPRPPSYPRP	-0.0228
RRIRQRPPRLPRPRPRPPTDPRP	0.0902

Sequence	shrunken log2 fold change
RRIRQRPPRLPRPRPRPPTLPRP	-4.2e-05
RRIRQRPPRLPRPRPRPPWGPRP	0.242
RRIRQRPPRLPRPRPRPPWPPRP	0.429
RRIRQRPPRLPRPRPRPPYFPRP	0.245
RRIRQRPPRLPRPRPRPPYGPRP	-0.408
RRIRQRPPRLPRPRPRPPYQPRP	-0.216
RRIRQRPPRLPRPRPRPQANPRP	-0.165
RRIRQRPPRLPRPRPRPQATPRP	-0.00963
RRIRQRPPRLPRPRPRPQAYPRP	-0.0257
RRIRQRPPRLPRPRPRPQCDPRP	-0.146
RRIRQRPPRLPRPRPRPQCYPRP	-0.168
RRIRQRPPRLPRPRPRPQEKPRP	0.0313
RRIRQRPPRLPRPRPRPQFKPRP	-0.0321
RRIRQRPPRLPRPRPRPQFMPRP	-0.302
RRIRQRPPRLPRPRPRPQFPPRP	-0.202
RRIRQRPPRLPRPRPRPQGCPRP	-0.0562
RRIRQRPPRLPRPRPRPQKIPRP	-0.29
RRIRQRPPRLPRPRPRPQMPPRP	-1.26
RRIRQRPPRLPRPRPRPQNQPRP	-0.17
RRIRQRPPRLPRPRPRPQNRPRP	-0.0176
RRIRQRPPRLPRPRPRPQNTPRP	-0.666
RRIRQRPPRLPRPRPRPQPLPRP	-0.0826
RRIRQRPPRLPRPRPRPQPPPRP	0.194
RRIRQRPPRLPRPRPRPQQRPRP	0.0983
RRIRQRPPRLPRPRPRPQRCPRP	0.0862

Sequence	shrunken log2 fold change
RRIRQRPPRLPRPRPRPQRLPRP	-0.0136
RRIRQRPPRLPRPRPRPQRQPRP	0.0235
RRIRQRPPRLPRPRPRPQSHPRP	-0.309
RRIRQRPPRLPRPRPRPQWNPRP	-0.206
RRIRQRPPRLPRPRPRPQYHPRP	-0.609
RRIRQRPPRLPRPRPRPQYIPRP	-0.0838
RRIRQRPPRLPRPRPRPQYSPRP	0.124
RRIRQRPPRLPRPRPRPQYWPRP	-0.0582
RRIRQRPPRLPRPRPRPRCHPRP	0.118
RRIRQRPPRLPRPRPRPRDDPRP	0.538
RRIRQRPPRLPRPRPRPRDIPRP	0.0657
RRIRQRPPRLPRPRPRPRFEPRP	0.0165
RRIRQRPPRLPRPRPRPRFLPRP	-0.0439
RRIRQRPPRLPRPRPRPRGMPRP	0.143
RRIRQRPPRLPRPRPRPRHPPRP	0.283
RRIRQRPPRLPRPRPRPRHTPRP	-0.147
RRIRQRPPRLPRPRPRPRLRPRP	0.44
RRIRQRPPRLPRPRPRPRMEPRP	-0.194
RRIRQRPPRLPRPRPRPRNEPRP	-0.199
RRIRQRPPRLPRPRPRPRPKPRP	0.936
RRIRQRPPRLPRPRPRPRPWPRP	0.858
RRIRQRPPRLPRPRPRPRQTPRP	0.161
RRIRQRPPRLPRPRPRPRQVPRP	0.302
RRIRQRPPRLPRPRPRPRRWPRP	0.326
RRIRQRPPRLPRPRPRPRSGPRP	0.162
